Test results taken from article PMC12455930, “LEF-6 phosphorylation regulates the binding and trafficking of baculovirus late gene transcripts”.

What was measured:
LEF6 82-173 = biological target: T1, LEF6 82-173 (Autographa californica multiple …, UniProt S5G646 82-173); test: EMSA; Anisotropy: 20 mM Tris-HCl pH 7.5, 20 mM NaCl, 5 nM FAM-ssRNA, 28 C; EMSA: 10 mM Tris pH 7.5, 20 mM KCl, 1 mM MgCl2, 1 mM DTT, 20 uM RNA, 22 C, 1% agarose/TAE.; conditions: protein: recombinant; tags: His; label: FAM (anisotropy); EMSA detected by ethidium bromide
T1 sequence: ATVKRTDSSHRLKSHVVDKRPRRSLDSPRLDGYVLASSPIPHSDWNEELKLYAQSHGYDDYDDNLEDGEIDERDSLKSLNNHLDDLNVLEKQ

LEF6 1-90 (E. coli) = biological target: T2, LEF6 1-90 (E. coli) (Autographa californica multiple …, UniProt S5G646 1-90); test: as above; conditions: protein: recombinant; tags: His; label: FAM (anisotropy); EMSA detected by ethidium bromide
T2 sequence: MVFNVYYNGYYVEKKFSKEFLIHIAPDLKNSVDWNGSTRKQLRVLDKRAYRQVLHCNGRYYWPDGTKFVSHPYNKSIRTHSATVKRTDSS

LEF6 1-90 (High Five) = biological target: T3, LEF6 1-90 (High Five) (Autographa californica multiple …, UniProt S5G646 1-90); test: as above; conditions: protein: recombinant; tags: His; label: FAM (anisotropy); EMSA detected by ethidium bromide
T3 sequence: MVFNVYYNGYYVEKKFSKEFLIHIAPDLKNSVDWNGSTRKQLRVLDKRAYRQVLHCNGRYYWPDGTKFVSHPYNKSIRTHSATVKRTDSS

[1] = biological target: T4, LEF6 1-90 (host not stated) (Autographa californica multiple …, UniProt S5G646 1-90); test: fluorescence anisotropy; Anisotropy: 20 mM Tris-HCl pH 7.5, 20 mM NaCl, 5 nM FAM-ssRNA, 28 C; EMSA: 10 mM Tris pH 7.5, 20 mM KCl, 1 mM MgCl2, 1 mM DTT, 20 uM RNA, 22 C, 1% agarose/TAE.; conditions: protein: recombinant, tags: His
T4 sequence: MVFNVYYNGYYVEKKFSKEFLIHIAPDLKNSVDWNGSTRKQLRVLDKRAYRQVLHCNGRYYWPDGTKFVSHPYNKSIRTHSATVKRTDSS

[2] = biological target: T5, LEF-6 (non-phosphorylated, E. coli) (Autographa californica multiple …, UniProt S5G646 1-173); test: as above; conditions: protein: recombinant, tags: His
T5 sequence: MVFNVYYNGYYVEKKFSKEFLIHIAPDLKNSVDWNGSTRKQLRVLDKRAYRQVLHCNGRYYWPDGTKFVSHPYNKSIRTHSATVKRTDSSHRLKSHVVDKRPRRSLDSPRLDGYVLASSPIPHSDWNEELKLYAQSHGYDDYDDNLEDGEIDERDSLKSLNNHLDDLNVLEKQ

[3] = label: FAM (anisotropy), EMSA detected by ethidium bromide

## GACAGGUCGCCGAAGUUACAGAACACG (ssRNA) [p6.9 ssRNA]
LEF6 82-173
  binding result: no binding
LEF6 1-90 (E. coli)
  binding result: binds
LEF6 1-90 (High Five)
  binding result: binds
[1]; [3]
  binding result: binds
[2]; [3]
  binding result: binds

## UUUUUUUUUUCUCUGCUCGACG (ssRNA) [unrelated ssRNA]
[1]; label: FAM
  binding result: binds
[2]; label: FAM
  binding result: binds

## UUAUAACCAUCCCACCCCGGAUGGAGC (ssRNA) [ie1 ssRNA]
[1]; label: FAM
  binding result: binds
[2]; label: FAM
  binding result: binds

## CGGUUUGCCCGCUCAAUUGACCGAUCU (ssRNA) [p10 ssRNA]
[1]; [3]
  binding result: binds
[2]; [3]
  binding result: binds
